Tested on: EIAV Rev (ERev), MBP-ERev fusion (Equine infectious anemia virus (EIAV))
Test: filter binding
Conditions: Footprinting: 10 mM HEPES-KOH pH 7.5, 100 mM KCl, 1 mM MgCl2, 0.5 mM EDTA, complex formed 20 min on ice, probed 10 min at room temperature

“ERRE_RBR12 (ERRE, EIAV RRE-1, contains RBR-1 and RBR-2)” showed a Kd of 19 nM.
